Values joined by “and” are separate entries in the source; they are usually repeats but may differ in a detail not shown here. Equal values may be shown once.
B1: G-protein-signaling modulator 1: PKGIα substrate, phospho site S567 (protein, UniProt Q9R080 1-673, looked up)
G-protein-signaling modulator …: MASPAPPAAEELPGPAARRLYSRMEASCLELALEGERLCKAGDFKAGVAFFEAAVQVGTEDLKTLSAIYSQLGNAYFYLKEYARALQFHKHDLLLARTIGDRMGEAKASGNLGNTLKVLGRFDEAIVCCQRHLDIAQEQGDKVGEARALYNIGNVYHAKGKQLSWNAAQDPGHLPPDVRETLHRASEFYERNLSLVKELGDRAAQGRAYGNLGNTHYLLGNFTEATTFHKERLAIAKEFGDKAAERRAYSNLGNAHIFLGRFDVAAEHYKKTLQLSRQIRDQAVEAQACYSLGNTYTLLQDYERAAEYHLRHLVIAQELADRVGEGRACWSLGNAYVSMGSPAQALTFAKKHLQISQEIGDRNGELTARMNIAHLQLALGRLTSPAAAEKPDLAGYEAQGARPKRTQRLSAETWDLLRLPLDREQNGETHHTGDWRGPSRDSLPLPMRSRKYQEGPDAIERRPREGSHSPLDSADVRVQVPRTGIPRAPSSDEECFFDLLSKFQSSRMDDQRCPLEEGQAGAAEATAAPTLEERAAQPSVTASPQTEEFFDLIASSQSRRLDDQRASVGSLPGLRITLNNVGHLRGDGDPQEPGDEFFNMLIKYQSSRIDDQRCPPPDVLPRGPTMPDEDFFSLIQRVQAKRMDEQRVDLAGSPDQEASGLPDPRQQCPPGAS
modifications: phosphorylated at S567
B2: Histone H1.5: PKGIα substrate, phospho site T35 (protein, UniProt D3ZBN0 2-222, looked up)
Histone H1.5: SETAPAETTAPAPVEKSPAKKKTKKAGAAKRKATGPPVSELITKAVSASKERGGVSLPALKKALAAGGYDVEKNNSRIKLGLKSLVSKGTLVQTKGTGASGSFKLNKKVASGEAKPKAKKTGAAKAKKPTGATPKKPKKTAGAKKTVKKTPKKAKKPAAAGVKKVTKSPKKAKAAAKPKKATKSPARPKAVKSKASKPKVTKPKAAKPKAAKVKKAVSKKK
modifications: phosphorylated at T35
B3: Lyrm1 pS110 (protein, UniProt B2RYU8 1-122, looked up)
LYR motif-containing protein 1: MTAASRQEVLGLYRSFFRLARKWQAASGQMEDTIKEKQYILNEARTLFQKNKNLTDPDLIKQCIDECTARIEIGLHYQIPYPRPIHLPPMGLTPRRGRGLQTQEKLRKFSKPLYLKSHDEVS
modifications: phosphorylated at S110
B4: CLIP-associating protein 2: PKGIα substrate, phospho site S436 (protein, UniProt Q99JD4 1-1286, looked up)
CLIP-associating protein 2: MRRLICKRICDYKSFDDEESVDGNRPSSAASAFKVPAPKTPGNPVNSARKPGSAGGPKAGGTSKEGGAGAVDEDDFIKAFTDVPSIQIYSSRELEETLNKIREILSDDKHDWDQRANALKKIRSLLVAGAAQYDCFFQHLRLLDGALKLSAKDLRSQVVREACITVAHLSTVLGNKFDHGAEAIVPTLFNLVPNSAKVMATSGCAAIRFIIRHTHVPRLIPLITSNCTSKSVPVRRRSFEFLDLLLQEWQTHSLERHAAVLVETIKKGIHDADAEARVEARKTYMGLRNHFPGEAETLYNSLEPSYQKSLQTYLKSSGSVASLPQSDRSSSSSQESLNRPFSSKWSTANPSAVAGRVSVGGSKASPLPGSLQRSRSDIDVNAAAGAKAHHAAGQAVRSGRLGAGALNPGSYASLEDTSDKMDGTASEDGRVRAKLSTPLVAVGNAKTDSRGRSRTKMVSQSQPGSRSGSPGRVLTTTALSTVSSGAQRILVNSASAQKRSKIPRSQGCSREASPSRLSVARSSRIPRPSVSQGCSREASRESSRDTSPVRSFQPLGPGYGMSQSSRLSSSVSAMRVLNTGSDVEEAVADALLLGDIRTKKKPARRRYESYGMHSDDDANSDASSACSERSYSSRNGSIPTYMRQTEDVAEVLNRCASSNWSERKEGLLGLQNLLKNQRTLSRVELKRLCEIFTRMFADPHGKVFSMFLETLVDFIQVHKDDLQDWLFVLLTQLLKKMGADLLGSVQAKVQKALDVTRESFPNDLQFNILMRFTVDQTQTPSLKVKVAILKYIETLAKQMDPGDFINSSETRLAVSRVITWTTEPKSSDVRKAAQSVLISLFELNTPEFTMLLGALPKTFQDGATKLLHNHLRNTGNGTQSSMGSPLTRPTPRSPANWSSPLTSPTNTSQNTLSPSAFDYDTENMNSEDIYSSLRGVTEAIQNFSFRSQEDMSEPLKRDPKKEDGDTVCSGPGMSDPRAGGDAPDSSQPALDNKASLLHSVPLHSSPRSRDYNPYNYSDSISPFNKSALKEAMFDDDADQFPDDLSLDHSDLVAELLKELSNHNERIEERKIALYELMKLTQEESFSVWDEHFKTILLLLLETLGDKEPTIRALALKVLKEILRHQPARFKNYAELTVMKTLEAHKDPHKEVVRSAEEAASVLATSISPEQCIKVLCPIIQTADYPINLAAIKMQTKVIERVSKETLNLLLPEIMPGLIQGYDNSESSVRKACVFCLVAVHAVIGDELKPHLSQLTGSKMKLLNLYIKRAQTGSAGADPTTDVSGQS
modifications: phosphorylated at S436
B5: Cytoplasmic dynein 1 light intermediate chain 1: PKGIα substrate, phospho sites T408 (r11) and S412 (r12) (protein, UniProt Q9QXU8 1-523, looked up)
Cytoplasmic dynein 1 light …: MAAVGRVGSFGSSPPGLASTYASGPLANELASGSGGPAAGDDEDGQNLWSRILREVSTRSRSKLPTGKNVLLLGEDGAGKTSLIRRIQGIEEYKKGRGLEYLYLNVHDEDRDDQTRCNVWILDGDLYHKGLLKFSLDALSLRDTLVMLVVDMSKPWTALDSLQKWASVVREHVDKLKIPPEEMKEMEQKLIRDFQEYVEPGEDFPASPQRRATAAQEDRDDSVVLPLGADTLTHNLGLPVLVVCTKCDAISVLEKEHDYRDEHFDFIQSHIRKFCLQYGAALIYTSVKENKNIDLVYKYIVQKLYGFPYKIPAVVVEKDAVFIPAGWDNDKKIGILHENFQTLKIEDNFEDIITKPPVRKFVHEKEIMAEDDQVFLMKLQSLLAKQPPTAAGRPVDASPRVPGGSPRTPNRSVSSNVASVSPIPAGSKKIDPNMKAGATSEGVLANFFNSLLSKKTGSPGGPGVGGSPGGGAAGASTSLPPSAKKSGQKPVLSDVHAELDRITRKPASVSPTTPPSPTEGEAS
modifications: phosphorylated at T408 and S412
B6: Histone H1.4: PKGIα substrate, phospho site S36 (protein, UniProt P43274 2-219, looked up)
Histone H1.4: SETAPAAPAAPAPAEKTPVKKKARKAAGGAKRKTSGPPVSELITKAVAASKERSGVSLAALKKALAAAGYDVEKNNSRIKLGLKSLVSKGTLVQTKGTGASGSFKLNKKAASGEAKPKAKRAGAAKAKKPAGAAKKPKKAAGTATAKKSTKKTPKKAKKPAAAAGAKKAKSPKKAKATKAKKAPKSPAKAKTVKPKAAKPKTSKPKAAKPKKTAAKKK
modifications: phosphorylated at S36
B7: Heat shock protein beta-6: PKGIα substrate, phospho site S16 (protein, UniProt P97541 1-162, looked up)
Heat shock protein beta-6: MEIRVPVQPSWLRRASAPLPGFSTPGRLFDQRFGEGLLEAELASLCPAAIAPYYLRAPSVALPTAQVPTDPGYFSVLLDVKHFSPEEISVKVVGDHVEVHARHEERPDEHGFIAREFHRRYRLPPGVDPAAVTSALSPEGVLSIQATPASAQASLPSPPAAK
modifications: phosphorylated at S16

Tests used:
[1] = test system: PKGIα (analogue-sensitive M438G), disulfide-activated; assay: Chemical genetic phosphoproteomic screen, disulfide-activated PKGIα M438G versus unactivated control; assay type: biochemical, human PKGIα; substrates in rat heart homogenate; details: for Log2 fold change in phosphorylation, Disulfide versus control: n=4
Text: (§1) We employed a chemical genetic method[18] to identify direct substrates of cGMP-activated PKGIα and disulfide bond-activated PKGIα in heart tissue. This method involves mutation of the ATP binding-site of the kinase of interest so that it can accept a ‘bulky' N6-alkylated ATP analogue for example, N6^−phenylethyl ATP. An oxygen atom on the γ phosphate is also replaced with a sulfur atom—giving an N6-alkylated ATPγS analogue—so that the mutant kinase catalyses the transfer of a thiophosphate group (–PO3S^3−) to its substrates instead of a phosphate. The thiophosphate group is nucleophilic, providing a basis for substrates of the analogue-sensitive kinase to be purified by a ‘covalent capture' protocol. LC–MS/MS allows identification of the substrate and localization of the phosphorylation site. Thiophosphorylated proteins can also be detected with a thiophosphate ester-specific antibody. Analogue-sensitive mutants of PKGIα and PKGIα C42S (which cannot form the activating intermolecular disulfide bond) were generated by mutating Met438 in the ATP-binding domain to Gly. This mutation was chosen based on a previous study where an analogue-sensitive mutant of the catalytic subunit of PKA—which shares sequence homology with PKGIα—was engineered. Detailed protocols are given below.
(§2) A pCDNA3 expression vector encoding human FLAG-tagged PKGIα (ref. [41]) underwent site-directed mutagenesis to generate constructs for untagged WT, C42S, M438G and C42S/M438G PKGIα. Mutations were introduced using the QuikChange II Site-Directed Mutagenesis Kit (Agilent) according to the manufacturer's instructions. Expression and purification of the PKGIα mutants was performed according to a published method[42] as follows: suspension FreeStyle 293-F cells (ThermoFisher Scientific) were transfected with the appropriate PKGIα construct using the stable cationic polymer polyethyleneimine (PEI) as a transfection reagent. After ∼72 h cells were harvested by centrifugation (400g; room temperature; 15 min), re-suspended in ice cold lysis buffer (25 mM sodium phosphate buffer pH 6.8; 10 mM ethylenediaminetetraacetic acid (EDTA); 100 mM NaCl; 10 mM benzamidine hydrochloride; and 10 mM dithiothreitol (DTT)) and frozen in liquid N2. Cells were lysed by three freeze (liquid N2)-thaw (37 °C) cycles and the lysate was clarified by centrifugation at 140,000g and 4 °C for 30 min. The soluble protein fraction was loaded onto a pre-equilibrated 8-(2-aminoethylamino)adenosine-3′, 5′-cyclic monophosphate column (8-AEA-cAMP agarose; BioLog, Germany) followed by washing with 20 column volumes of lysis buffer. The column was further washed with lysis buffer +3 M NaCl (5 column volumes) and PKGIα was then eluted with lysis buffer +150 mM NaCl and 500 μM cAMP. Removal of cAMP and buffer exchange was achieved by extensive dialysis against 25 mM sodium phosphate buffer pH 6.8, 2 mM EDTA and 100 mM NaCl. For ITC analysis, WT PKGIα was incubated with 10 mM lipoic acid for 2 h on ice to obtain ∼100% disulfide dimer (confirmed by SDS-PAGE). Oxidized WT or C42S PKGIα was further purified by size exclusion chromatography using a HiLoad 16/600 Superdex 200 pg column (GE Healthcare) with 50 mM sodium phosphate buffer pH 7.4 and 100 mM NaCl. Proteins were concentrated using Amicon Ultra centrifugal filter devices (Merck Millipore). DTT was absent in storage buffers so that the activating disulfide bond would not be reduced and so that the PKGIα M438G mutant would be oxidized to disulfide dimer in the presence of air (confirmed by SDS-PAGE). Protein concentration was determined by Pierce BCA assay (ThermoFisher) and enzyme activity was confirmed using the Omnia kinase assay kit (ThermoFisher).
(§3) Male Wistar rats (9–10 weeks; body weight 300–330 g) were euthanized by intraperitoneal injection of sodium pentobarbitone (200 mg kg^−1) with heparin (500 USP units). […]

[2] = test system: PKGIα (analogue-sensitive C42S/M438G), cGMP-activated; assay: Chemical genetic phosphoproteomic screen, cGMP-activated PKGIα C42S/M438G versus unactivated control; assay type: biochemical, human PKGIα; substrates in rat heart homogenate; details: n=4
Text: as §1, §2, §3

[3] = disulfide-activated PKGIα M438G vs basal, 1 h, 30 °C, pH 7.5, rat heart homogenate, label-free LC–MS/MS, * P<0.05 Dunnett: only phospholamban S16
[4] = PKGIα C42S/M438G + 100 μM cGMP vs basal, 1 h, 30 °C, pH 7.5, rat heart homogenate, label-free LC–MS/MS, * P<0.05 Dunnett: all values except phospholamban S16

Molecule	Log2 fold change in phosphorylation, Disulfide versus control [1, 3]	Log2 fold change in phosphorylation, cGMP versus control [2, 4]	log2 fold change Disulfide vs Control ([1]; control = PKGIα C42S/M438G)	Log2 fold change in phosphorylation, Disulfide versus control ([1]; phospho site S412 (second site of this protein), not significant)	Log2 fold change in phosphorylation, cGMP versus control ([2]; phospho site S412 (second site of this protein), * P<0.05)
B1	1.04	2.93*			
B2	1.43	3.90*			
B3			0.4439 and 0.5384		
B4	0.86	1.79*			
B5	1.95	3.76*		1.66	4.15*
B6	0.48	1.30*			
B7	1.25	2.61*			
